Experimental data reported in patent US11160871B2, “SSTR-targeted conjugates and particles and formulations thereof” (TARVEDA THERAPEUTICS, INC., priority 2015, dated 2021).
Read-outs that look alike come from different tables or passages of the source.

Columns and labels:
Plasma protein binding = assay type: in vitro ADME; conditions: for fraction unbound at 1 uM: read-out: Free fraction at 1 uM (%); for fraction unbound at 10 uM: read-out: Free fraction at 10 uM (%)
From the text: Plasma protein binding is not concentration dependent and is consistent across species.

NCI-H69 tumors = assay: NCI-H69 tumor volume study, 2 doses; assay type: in vivo, mice
Description: In another study, 10 mice bearing NCI-H69 tumors were given 2 doses of Conjugate 57 at 2 mg/kg each. 9 mice bearing NCI-H69 tumors were given 2 doses of Conjugate 57 at 1.3 mg/kg each. All 10 animals dosed at 2 mg/kg had no detectable tumors at study end. Conjugate 57 More than half (5 out of 9) animals dosed at 1.3 mg/kg had no detectable tumors at study end.

[1] = NCI-H524 small cell lung cancer model, tumor volume and body weight; assay type: in vivo; conditions: in vivo; read-out: maximum tolerated dose (MTD)
From the text: (§1) NCI-H524 over expresses SSTR2. […] There was minimal body weight loss and favorable toxicology.

[2] = test system: NCI-H524 small cell lung cancer model; assay: as above; assay type: in vivo
From the text: as §1

[3] = Membrane permeability in Caco-2 monolayers; assay type: in vitro ADME; conditions: human, Caco-2; Test Conc. 10 uM
Description: (§2) Membrane permeability of Conjugate 57 was measured in Caco-2 monolayers. The apparent permeability (Papp) was determined to be very low in both the apical to basolateral direction and the basolateral to apical direction.

Caco-2 monolayers = assay: Membrane permeability in Caco-2 monolayers; assay type: in vitro ADME; conditions: Test Conc. 10 uM
Description: as §2

NCI-H69 SCLC tumors = assay: H69 tumor DM-1 levels by LC/MS-MS; assay type: in vivo, mice; conditions: 1 mg/kg; 24 hour time point
Description: To examine the ability of conjugates of the present invention to accumulate in tumors, a murine cancer model was used. All mice were treated in accordance with the OLAW Public Health Service Policy on Human Care and Use of Laboratory Animals and the ILAR Guide for the Care and Use of Laboratory Animals. All in vivo studies were conducted following the protocols approved by the Blend Therapeutics Institutional Animal Care and Use Committee. Animals were inoculated with 2.5×10^6 NCI-H69 SCLC (small cell lung cancer) cells in 1:1 RPMI 1640 (Invitrogen, Carlsbad, Calif.)/Matrigel® (BD Biosciences, San Jose, Calif.) via subcutaneous injection to the right flank. Tumors were allowed to reach an approximate volume of ˜500 mm3. Animals were then randomized into treatment groups of 3 animals per time point and were dosed at 1 mg/kg (10% propylene glycol in water for injection for free conjugates, or 10% sucrose for nanoparticles), or 0.4 mg/kg for DM-1 (10% propylene glycol in water for injection). The 24 hour time point was used as a benchmark across conjugates.
Tumor DM-1 levels were determined by liquid chromatography mass spectrometry (LC/MS-MS). Four volumes of 5 mM 6-maleimidohexanoic acid to 1 part tumor v/w was added and homogenized for about 10-15 seconds with a handheld homogenizer. 10 μL of 500 mM Tris(2-carboxyethyl)phosphine was added to 100 uL of tumor homogenate, mixed well and incubated at room temperature for about 5-15 min. 200-300 uL of acetonitrile was used to precipitate proteins in tumor homogenate, samples were centrifuged for 5 min, and supernatant was injected onto LC/MS-MS system for DM-1 analysis.

Plasma pharmacokinetics = assay type: in vivo; conditions: for Vd: read-out: Vss
Description: In this example, plasma pharmacokinetics of Conjugate 57 was studied in mouses, rats and dogs. Half-life, maximum plasma drug concentration (Cmax), drug clearance (CL), area under the curve time curve from time 0 to the last sampling time (AUC 0-t), and apparent volume of distribution at steady state (VSS) were measured.

[4] = test system: panel of GPCRs (119 targets); assay: Off-target binding to a panel of GPCRs; conditions: 1 uM concentration
Description: To further study the off-target binding of Conjugate 57, the binding of Conjugate 57 to a panel of GPCRs (119 targets) was measured at 1 uM concentration. Conjugate 57 has no activity against the panel of GPCRs.

CYP2C9 = CYP2C9 (Homo sapiens, UniProt P11712); assay: CYP inhibition; assay type: in vitro ADME
Sequence of CYP2C9 (P11712 whole entry): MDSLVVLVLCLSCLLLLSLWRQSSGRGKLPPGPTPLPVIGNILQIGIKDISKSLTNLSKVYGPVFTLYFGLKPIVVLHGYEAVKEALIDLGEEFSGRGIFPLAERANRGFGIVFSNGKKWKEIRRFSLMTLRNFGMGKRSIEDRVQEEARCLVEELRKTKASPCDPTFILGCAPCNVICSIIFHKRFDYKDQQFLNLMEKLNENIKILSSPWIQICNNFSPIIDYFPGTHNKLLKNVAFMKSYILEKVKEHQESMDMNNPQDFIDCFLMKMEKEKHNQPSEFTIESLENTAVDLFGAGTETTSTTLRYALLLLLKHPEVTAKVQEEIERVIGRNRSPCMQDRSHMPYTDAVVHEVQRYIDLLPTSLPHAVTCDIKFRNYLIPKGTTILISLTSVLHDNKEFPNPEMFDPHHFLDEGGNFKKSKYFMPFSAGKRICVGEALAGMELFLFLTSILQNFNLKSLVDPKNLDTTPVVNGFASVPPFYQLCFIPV
Description: (§3) In a further study, the potential for Conjugate 57 to inhibit cytochrome P450 (CYP) was tested across 7 isozymes of CYP enzymes. […] The data also indicate Conjugate 57 presents no risk for causing drug-drug interactions (DDIs) by inhibiting the CYP clearance of other drugs. Lack of DDIs is critical when developing combination therapies.

CYP1A2 = CYP1A2 (Homo sapiens, UniProt P05177); assay: CYP inhibition; assay type: in vitro ADME
Sequence of CYP1A2 (P05177 whole entry): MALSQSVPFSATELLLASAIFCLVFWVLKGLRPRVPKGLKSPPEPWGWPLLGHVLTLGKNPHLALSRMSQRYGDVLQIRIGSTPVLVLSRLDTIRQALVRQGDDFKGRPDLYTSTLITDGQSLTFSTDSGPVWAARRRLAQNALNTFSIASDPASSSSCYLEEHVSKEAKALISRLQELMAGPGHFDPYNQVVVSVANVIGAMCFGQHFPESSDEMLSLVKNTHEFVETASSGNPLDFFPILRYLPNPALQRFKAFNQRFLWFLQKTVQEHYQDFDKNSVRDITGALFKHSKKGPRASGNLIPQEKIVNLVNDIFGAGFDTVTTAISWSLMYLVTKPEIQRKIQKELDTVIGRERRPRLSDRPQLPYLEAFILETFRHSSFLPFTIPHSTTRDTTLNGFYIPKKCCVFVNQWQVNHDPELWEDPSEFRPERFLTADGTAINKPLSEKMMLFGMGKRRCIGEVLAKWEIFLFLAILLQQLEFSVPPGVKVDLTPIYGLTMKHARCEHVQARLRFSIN
Description: as §3

CYP2C8 = CYP2C8 (Homo sapiens, UniProt P10632); assay: CYP inhibition; assay type: in vitro ADME
Sequence of CYP2C8 (P10632 whole entry): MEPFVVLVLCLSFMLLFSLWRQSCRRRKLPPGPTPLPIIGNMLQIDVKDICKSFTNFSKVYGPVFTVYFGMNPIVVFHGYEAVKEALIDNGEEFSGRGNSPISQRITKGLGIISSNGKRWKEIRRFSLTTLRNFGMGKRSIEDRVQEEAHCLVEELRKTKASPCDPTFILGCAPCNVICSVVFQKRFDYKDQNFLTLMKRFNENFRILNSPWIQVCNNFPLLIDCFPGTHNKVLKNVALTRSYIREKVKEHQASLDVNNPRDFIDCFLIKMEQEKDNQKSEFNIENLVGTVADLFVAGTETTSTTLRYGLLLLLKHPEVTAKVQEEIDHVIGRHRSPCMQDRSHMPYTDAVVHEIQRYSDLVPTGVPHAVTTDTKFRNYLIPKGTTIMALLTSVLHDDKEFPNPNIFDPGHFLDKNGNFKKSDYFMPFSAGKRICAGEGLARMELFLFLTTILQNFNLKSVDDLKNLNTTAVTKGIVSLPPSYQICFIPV
Description: as §3

CYP2B6 = CYP2B6 (Homo sapiens, UniProt P20813); assay: CYP inhibition; assay type: in vitro ADME
Sequence of CYP2B6 (P20813 whole entry): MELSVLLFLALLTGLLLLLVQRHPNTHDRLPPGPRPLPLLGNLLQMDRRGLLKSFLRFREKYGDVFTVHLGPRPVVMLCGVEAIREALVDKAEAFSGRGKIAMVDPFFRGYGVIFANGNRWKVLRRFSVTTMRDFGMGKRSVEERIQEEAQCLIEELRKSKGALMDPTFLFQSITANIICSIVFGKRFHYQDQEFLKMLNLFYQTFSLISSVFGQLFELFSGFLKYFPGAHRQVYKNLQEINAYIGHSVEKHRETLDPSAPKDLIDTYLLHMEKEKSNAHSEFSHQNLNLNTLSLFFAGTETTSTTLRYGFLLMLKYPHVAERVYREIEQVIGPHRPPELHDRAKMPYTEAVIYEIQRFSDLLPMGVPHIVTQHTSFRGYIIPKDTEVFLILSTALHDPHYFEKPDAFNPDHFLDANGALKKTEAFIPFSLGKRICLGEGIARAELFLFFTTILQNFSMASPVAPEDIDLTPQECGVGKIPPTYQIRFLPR
Description: as §3

CYP3A4 = CYP3A4 (Homo sapiens, UniProt P08684); assay: CYP inhibition; assay type: in vitro ADME
Sequence of CYP3A4 (P08684 whole entry): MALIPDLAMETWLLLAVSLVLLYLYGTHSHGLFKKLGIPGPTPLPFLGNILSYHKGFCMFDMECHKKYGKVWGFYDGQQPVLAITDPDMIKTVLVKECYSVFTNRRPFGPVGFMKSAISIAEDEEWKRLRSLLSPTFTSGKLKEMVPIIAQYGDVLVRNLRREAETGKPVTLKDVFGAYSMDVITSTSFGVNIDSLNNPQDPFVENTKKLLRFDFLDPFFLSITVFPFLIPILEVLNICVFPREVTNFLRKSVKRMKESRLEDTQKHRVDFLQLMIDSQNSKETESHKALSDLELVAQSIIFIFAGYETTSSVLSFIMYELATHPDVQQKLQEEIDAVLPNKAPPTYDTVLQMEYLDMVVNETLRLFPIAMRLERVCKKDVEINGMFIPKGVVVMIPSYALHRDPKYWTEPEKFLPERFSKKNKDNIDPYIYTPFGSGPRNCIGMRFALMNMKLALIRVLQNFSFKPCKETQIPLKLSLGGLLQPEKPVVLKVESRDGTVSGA
Description: as §3

CYP2D6 = CYP2D6 (Homo sapiens, UniProt P10635); assay: CYP inhibition; assay type: in vitro ADME
Sequence of CYP2D6 (P10635 whole entry): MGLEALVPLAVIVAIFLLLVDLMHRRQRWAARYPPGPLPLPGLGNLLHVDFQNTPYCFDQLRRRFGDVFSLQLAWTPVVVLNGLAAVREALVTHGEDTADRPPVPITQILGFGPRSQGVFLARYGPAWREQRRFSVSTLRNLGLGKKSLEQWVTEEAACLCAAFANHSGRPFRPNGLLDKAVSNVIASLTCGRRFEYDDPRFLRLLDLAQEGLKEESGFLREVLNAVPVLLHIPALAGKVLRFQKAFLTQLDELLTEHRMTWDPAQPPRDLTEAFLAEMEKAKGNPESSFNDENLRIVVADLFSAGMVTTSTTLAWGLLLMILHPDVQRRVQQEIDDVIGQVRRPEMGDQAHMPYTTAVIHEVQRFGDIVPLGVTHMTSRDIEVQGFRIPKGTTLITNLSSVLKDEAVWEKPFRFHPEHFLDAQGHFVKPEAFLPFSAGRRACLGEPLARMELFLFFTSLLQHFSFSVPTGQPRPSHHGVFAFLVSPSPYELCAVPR
Description: as §3

CYP2C19 = CYP2C19 (Homo sapiens, UniProt P33261); assay: CYP inhibition; assay type: in vitro ADME
Sequence of CYP2C19 (P33261 whole entry): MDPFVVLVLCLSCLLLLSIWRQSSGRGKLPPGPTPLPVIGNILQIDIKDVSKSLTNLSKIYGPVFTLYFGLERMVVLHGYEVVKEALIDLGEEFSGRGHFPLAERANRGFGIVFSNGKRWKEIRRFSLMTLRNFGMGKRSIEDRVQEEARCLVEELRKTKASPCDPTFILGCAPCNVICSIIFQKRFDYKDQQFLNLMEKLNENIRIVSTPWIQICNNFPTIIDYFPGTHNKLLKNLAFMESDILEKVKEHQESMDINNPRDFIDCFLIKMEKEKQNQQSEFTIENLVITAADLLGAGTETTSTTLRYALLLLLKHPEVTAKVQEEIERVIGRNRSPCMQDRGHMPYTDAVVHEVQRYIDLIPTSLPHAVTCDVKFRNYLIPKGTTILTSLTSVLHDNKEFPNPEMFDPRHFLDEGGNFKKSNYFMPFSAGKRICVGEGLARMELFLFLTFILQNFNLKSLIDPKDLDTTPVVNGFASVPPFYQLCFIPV
Description: as §3

## COc1cc2cc(c1Cl)N(C)C(=O)C[C@H](OC(=O)[C@H](C)N(C)C(=O)CCSSC[C@H](NC(=O)[C@@H]1CSSC[C@H](NC(=O)[C@H](N)Cc3ccccc3)C(=O)N[C@@H](Cc3ccc(O)cc3)C(=O)N[C@H](Cc3c[nH]c4ccccc34)C(=O)N[C@@H](CCCCN)C(=O)N[C@@H]([C@@H](C)O)C(=O)N1)C(N)=O)[C@]1(C)O[C@H]1[C@H](C)[C@@H]1C[C@@](O)(NC(=O)O1)[C@H](OC)/C=C/C=C(\C)C2 [Conjugate 57]
Plasma protein binding; Dog plasma
  fraction unbound at 1 uM: 0.044
  fraction unbound at 10 uM: 0.033
Plasma protein binding; Human plasma
  fraction unbound at 1 uM: 0.078
  fraction unbound at 10 uM: 0.078
Plasma protein binding; Mouse plasma
  fraction unbound at 1 uM: 0.082
  fraction unbound at 10 uM: 0.094
Plasma protein binding; Rat plasma
  fraction unbound at 1 uM: 0.063
  fraction unbound at 10 uM: 0.074
NCI-H69 tumors; 2 doses at 1.3 mg/kg each, 9 mice
  animals with no detectable tumors at study end: 5 out of 9
NCI-H69 tumors; 2 doses at 2 mg/kg each, 10 mice
  animals with no detectable tumors at study end: 10
[1]
  MTD: 2 mg/kg
[2]; 2 mg/kg (MTD) and 1 mg/kg
  tumor response (mean tumor volume): complete tumor regressions
[2]; in vivo
  tolerability (mean body weight change): well tolerated
[3]
  Papp A→B at 10 uM: 0.018 ×10⁻⁶ cm/s
  Papp B→A at 10 uM: 0.094 ×10⁻⁶ cm/s
Caco-2 monolayers
  Mean A→B Papp: very low
  Mean B→A Papp: very low
NCI-H69 SCLC tumors
  H69 tumor DM-1 levels: 243 nM
Plasma pharmacokinetics; Dog, 0.1 mg/kg
  AUC(0-t): 0.619 µM·h
  Cmax: 0.73 µM
  clearance: 1.39 mL/min/kg
  half-life: 2.86 h
  Vd: 0.224 L/kg
Plasma pharmacokinetics; Mouse, 2 mg/kg
  AUC(0-t): 7.3 µM·h
  Cmax: 5.93 µM
  clearance: 2.32 mL/min/kg
  half-life: 12.2 h
  Vd: 0.963 L/kg
Plasma pharmacokinetics; Rat, 1.5 mg/kg
  AUC(0-t): 2.77 µM·h
  Cmax: 4.69 µM
  clearance: 4.99 mL/min/kg
  half-life: 8.07 h
  Vd: 0.594 L/kg
[4]
  activity against the panel of GPCRs: no activity
CYP2C9
  IC50: > 10 µM
CYP1A2
  IC50: > 10 µM
CYP2C8
  IC50: > 10 µM
CYP2B6
  IC50: > 10 µM
CYP3A4; CYP3A4 Midazolam
  IC50: > 10 µM
CYP3A4; CYP3A4 Testosterone
  IC50: > 10 µM
CYP2D6
  IC50: > 10 µM
CYP2C19
  IC50: > 10 µM
